Source: patent US20260226187A1 (BIOATLA, published 2026)

Legend:
Assay in all cases: cell-based or functional assay
[1] = biological target: T1, Human EpCAM expressed on cells (CHO-hEpCAM, HCT116) (human, UniProt P16422 24-314)
T1 sequence (looked up): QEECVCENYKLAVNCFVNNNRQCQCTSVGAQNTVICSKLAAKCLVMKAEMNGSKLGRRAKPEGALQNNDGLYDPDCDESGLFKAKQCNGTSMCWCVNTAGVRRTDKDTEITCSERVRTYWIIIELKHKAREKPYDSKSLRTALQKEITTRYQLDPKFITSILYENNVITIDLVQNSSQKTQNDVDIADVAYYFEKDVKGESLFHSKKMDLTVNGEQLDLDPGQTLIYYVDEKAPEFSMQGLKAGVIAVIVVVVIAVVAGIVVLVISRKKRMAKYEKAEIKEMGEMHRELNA

[2] = biological target: Cynomolgus EpCAM expressed on CHO cells (cynomolgus monkey)
Sequence of Cynomolgus EpCAM expressed on CHO cells (cynomolgus monkey) (Q1WER1 24-314): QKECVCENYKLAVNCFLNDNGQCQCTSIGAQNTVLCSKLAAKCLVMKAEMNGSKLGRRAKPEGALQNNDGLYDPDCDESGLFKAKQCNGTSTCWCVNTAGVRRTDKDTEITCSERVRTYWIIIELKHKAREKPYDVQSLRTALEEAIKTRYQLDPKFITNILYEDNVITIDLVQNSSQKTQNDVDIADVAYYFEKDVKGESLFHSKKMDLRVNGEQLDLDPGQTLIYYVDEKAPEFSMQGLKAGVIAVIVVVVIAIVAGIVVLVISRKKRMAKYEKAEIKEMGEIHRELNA

[3] = biological target: T1, Human EpCAM expressed on cells …; remark: listed apart in the source
[4] = biological target: Cynomolgus EpCAM expressed on CHO cells (cynomolgus monkey); remark: listed apart in the source
[5] = biological target: T1, Human EpCAM expressed on cells …; remark: listed apart in the source
[6] = biological target: T1, Human EpCAM expressed on cells …; remark: listed apart in the source

EC50, cytolysis of HCT116 cells by human PBMC, pH 6.5, donor 13143 [1]: 1.66 pM
EC50, cytolysis of HCT116 cells by human PBMC, pH 6.5, donor 13290 [1]: 1.03 pM
EC50, cytolysis of HCT116 cells by human PBMC, pH 6.5, donor 13292 [1]: 2.05 pM
EC50, cytolysis of HCT116 cells by human PBMC, pH 6.5, donor 13371 [1]: 0.79 pM
EC50, cytolysis of HCT116 cells by human PBMC, pH 6.5, donor 13397 [1]: 1.19 pM
EC50, cytolysis of HCT116 cells by human PBMC, pH 6.5, donor 13411 [1]: 1.39 pM
EC50, cytolysis of HCT116 cells by human PBMC, pH 6.5, donor 75377 [1]: 0.6 pM
EC50, cytolysis of HCT116 cells by human PBMC, pH 6.5, donor 77535 [1]: 1.52 pM
EC50, cytolysis of HCT116 cells by human PBMC, pH 6.5, donor 85639 [1]: 0.88 pM
EC50, cytolysis of HCT116 cells by human PBMC, pH 6.5, donor 97529 [1]: 2.95 pM
EC50, cytolysis of HCT116 cells by human PBMC, pH 7.4, donor 13143 [1]: 8.73 pM
EC50, cytolysis of HCT116 cells by human PBMC, pH 7.4, donor 13290 [1]: 4.37 pM
EC50, cytolysis of HCT116 cells by human PBMC, pH 7.4, donor 13292 [1]: 6.35 pM
EC50, cytolysis of HCT116 cells by human PBMC, pH 7.4, donor 13371 [1]: 6.96 pM
EC50, cytolysis of HCT116 cells by human PBMC, pH 7.4, donor 13397 [1]: 5.9 pM
EC50, cytolysis of HCT116 cells by human PBMC, pH 7.4, donor 13411 [1]: 1.36 pM
EC50, cytolysis of CHO cynoEpCAM cells by cyno PBMC, pH 6.5, Experiment-1 [2]: 18.9 pM
EC50, cytolysis of CHO cynoEpCAM cells by cyno PBMC, pH 6.5, Experiment-2 [2]: 15.9 pM
EC50, cytolysis of CHO cynoEpCAM cells by cyno PBMC, pH 6.5, Experiment-3 [2]: 17.4 pM
EC50, cytolysis of CHO cynoEpCAM cells by cyno PBMC, pH 7.4, Experiment-1 [2]: 172 pM
EC50, cytolysis of CHO cynoEpCAM cells by cyno PBMC, pH 7.4, Experiment-2 [2]: 215 pM
EC50, cytolysis of CHO cynoEpCAM cells by cyno PBMC, pH 7.4, Experiment-3 [2]: 167 pM
EC50 IL-2 release, human PBMC co-cultured with HCT116, pH 6.5, donor 3371 [3]: 4.56 nM
EC50 IL-2 release, human PBMC co-cultured with HCT116, pH 6.5, donor 3378 [3]: 7.85 nM
EC50 IL-2 release, human PBMC co-cultured with HCT116, pH 6.5, donor 3397 [3]: 9.82 nM
EC50 IL-2 release, human PBMC co-cultured with HCT116, pH 6.5, donor 3411 [3]: 4.92 nM
EC50 IL-2 release, human PBMC co-cultured with HCT116, pH 6.5, donor 75377 [3]: 23.2 nM
EC50 IL-2 release, human PBMC co-cultured with HCT116, pH 6.5, donor 77535 [3]: 19.7 nM
EC50 IL-2 release, human PBMC co-cultured with HCT116, pH 6.5, donor 85639 [3]: 25.6 nM
EC50 IL-2 release, human PBMC co-cultured with HCT116, pH 6.5, donor 97529 [3]: 15 nM
EC50 INFγ release, human PBMC co-cultured with HCT116, pH 6.5, donor 3371 [3]: 5.28 nM
EC50 INFγ release, human PBMC co-cultured with HCT116, pH 6.5, donor 3378 [3]: 6.45 nM
EC50 INFγ release, human PBMC co-cultured with HCT116, pH 6.5, donor 3397 [3]: 10.1 nM
EC50 INFγ release, human PBMC co-cultured with HCT116, pH 6.5, donor 3411 [3]: 2.54 nM
EC50 INFγ release, human PBMC co-cultured with HCT116, pH 6.5, donor 75377 [3]: 2.53 nM
EC50 INFγ release, human PBMC co-cultured with HCT116, pH 6.5, donor 77535 [3]: 24 nM
EC50 INFγ release, human PBMC co-cultured with HCT116, pH 6.5, donor 97529 [3]: 2.52 nM
EC50, T cell activation bioassay (NFAT luminescence), CHO cynoEpCAM cells, pH 6.0, Experiment-1 [4]: 0.545 nM
EC50, T cell activation bioassay (NFAT luminescence), CHO cynoEpCAM cells, pH 6.0, Experiment-2 [4]: 0.597 nM
EC50, T cell activation bioassay (NFAT luminescence), CHO cynoEpCAM cells, pH 6.0, Experiment-3 [4]: 0.586 nM
EC50, T cell activation bioassay (NFAT luminescence), CHO cynoEpCAM cells, pH 7.4, Experiment-1 [4]: 9.46 nM
EC50, T cell activation bioassay (NFAT luminescence), CHO cynoEpCAM cells, pH 7.4, Experiment-2 [4]: 8.82 nM
EC50, T cell activation bioassay (NFAT luminescence), CHO cynoEpCAM cells, pH 7.4, Experiment-3 [4]: 10.7 nM
EC50, T cell activation bioassay (NFAT luminescence), HCT116 cells, pH 6.0, Experiment-1 [5]: 0.292 nM
EC50, T cell activation bioassay (NFAT luminescence), HCT116 cells, pH 6.0, Experiment-2 [5]: 0.288 nM
EC50, T cell activation bioassay (NFAT luminescence), HCT116 cells, pH 6.0, Experiment-3 [5]: 0.238 nM
EC50, T cell activation bioassay (NFAT luminescence), HCT116 cells, pH 7.4, Experiment-1 [5]: 1.86 nM
EC50, T cell activation bioassay (NFAT luminescence), HCT116 cells, pH 7.4, Experiment-2 [5]: 2.15 nM
EC50, T cell activation bioassay (NFAT luminescence), HCT116 cells, pH 7.4, Experiment-3 [5]: 1.96 nM
EC50, T cell activation bioassay (NFAT luminescence), CHO hEpCAM cells, pH 6.0, Experiment-1 [6]: 51 pM
EC50, T cell activation bioassay (NFAT luminescence), CHO hEpCAM cells, pH 6.0, Experiment-2 [6]: 49 pM
EC50, T cell activation bioassay (NFAT luminescence), CHO hEpCAM cells, pH 6.0, Experiment-3 [6]: 48 pM
EC50, T cell activation bioassay (NFAT luminescence), CHO hEpCAM cells, pH 7.4, Experiment-1 [6]: 0.358 nM
EC50, T cell activation bioassay (NFAT luminescence), CHO hEpCAM cells, pH 7.4, Experiment-2 [6]: 0.387 nM
EC50, T cell activation bioassay (NFAT luminescence), CHO hEpCAM cells, pH 7.4, Experiment-3 [6]: 0.403 nM
B1: BA3182 (bispecific antibody, human IgG1, kappa, N297Q)
light: DIQMTQSPSSLSASVGDRVTITCSASSSISYMHWYQQKPGQAPRLLIYSTSNLASGVPSRFSGSGSGTDFTFTISSLEAEDAATYYCHQWSTYHTFGQGTKVEIKRTVAAPSVFIFPPSDEQLKSGTASVVCLLNNFYPREAKVQWKVDNALQSGNSQESVTEQDSKDSTYSLSSTLTLSKADYEKHKVYACEVTHQGLSSPVTKSFNRGECSRSGGGGEVQLVESGGGLVQPGGSLRLSCAASGFTFNTYAMNWVRQAPGKGLEWVARIRSKYNNYATYYADSVKDRFTISRDDSKNSLYLQMNSLKTEDTAVYYCVRHSNFGNSKVSWFAYWGQGTLVTVSSGGSGGSGGSGGSGGQAVVTQEPSLTVSPGGTVTLTCRSSAGAVTTSNYDNWVQQKPGQAPRGLIGGTNKRAPWTPARFSGSLLGGKAALTITGAQAEDEADYYCALWYSNLWVFGGGTKLTVLSR
heavy: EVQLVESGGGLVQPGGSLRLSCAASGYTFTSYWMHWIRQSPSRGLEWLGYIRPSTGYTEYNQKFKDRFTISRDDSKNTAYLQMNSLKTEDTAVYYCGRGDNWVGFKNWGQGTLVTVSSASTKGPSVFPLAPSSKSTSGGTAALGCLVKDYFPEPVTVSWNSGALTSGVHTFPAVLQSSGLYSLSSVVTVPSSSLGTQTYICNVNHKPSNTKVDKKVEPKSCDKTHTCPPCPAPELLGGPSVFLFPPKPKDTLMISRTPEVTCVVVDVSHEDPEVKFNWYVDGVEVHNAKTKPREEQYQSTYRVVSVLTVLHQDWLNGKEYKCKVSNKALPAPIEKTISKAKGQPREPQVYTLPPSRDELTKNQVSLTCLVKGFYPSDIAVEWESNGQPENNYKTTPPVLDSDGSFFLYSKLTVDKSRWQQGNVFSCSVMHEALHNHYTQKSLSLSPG
notes: Human IgG1,k aglycosylated mutant (N297Q) with an anti-CD3 scFv on the C-terminus of each light chain; 200 kDa used for molar concentrations; also called BAP150.31-BF45; BA150.31-BF45
